{"source": "the supplement of paper PMC12458215", "system": "HEK293T", "experiment": "plasma membrane surface immunostaining intensity (anti-HA, deep receptor scanning) (arbitrary fluorescence units); higher = higher plasma membrane expression", "note": "± gives the uncertainty stated by the source.", "data": [{"sequence": "MGTDNQTWVSEFILLGLSSDWDTRVSLFVLFLVMYVVTVLGNCLIVLLIRLDSRLHTPMYFFLTNLSLVDVSYATSVVPQLLAHFLAEHKAIPFQSCAAQLFFSLALGGIEFVLLAVMAYDRYVAVCDALRYSAIMHGGLCARLAITSWVSGFISSPVQTAITFQLPMCRNKFIDHISCELLAVVRLACVDTSSNEVTIMVSSIVLLMTPFCLVLLSYIQIISTILKIQSREGRKKAFHTCASHLTVVALCYGVAIFTYIQPHSSPSVLQEKLFSVFYAILTPMLNPMIYSLRNKEVKGAWQKLLWKFSGLTSKLAT [OR2F1]", "values": [{"measurement": "plasma membrane surface immunostaining intensity", "setting": "GPCR class: A (Olfactory)", "result": "181 ± 74"}]}, {"sequence": "MGTEATEQVSWGHYSGDEEDAYSAEPLPELCYKADVQAFSRAFQPSVSLTVAALGLAGNGLVLATHLAARRAARSPTSAHLLQLALADLLLALTLPFAAAGALQGWSLGSATCRTISGLYSASFHAGFLFLACISADRYVAIARALPAGPRPSTPGRAHLVSVIVWLLSLLLALPALLFSQDGQREGQRRCRLIFPEGLTQTVKGASAVAQVALGFALPLGVMVACYALLGRTLLAARGPERRRALRVVVALVAAFVVLQLPYSLALLLDTADLLAARERSCPASKRKDVALLVTSGLALARCGLNPVLYAFLGLRFRQDLRRLLRGGSCPSGPQPRRGCPRRPRLSSCSAPTETHSLSWDN [CCR10]", "values": [{"measurement": "plasma membrane surface immunostaining intensity", "setting": "GPCR class: A", "result": "424 ± 20"}]}, {"sequence": "MINSTSTQPPDESCSQNLLITQQIIPVLYCMVFIAGILLNGVSGWIFFYVPSSKSFIIYLKNIVIADFVMSLTFPFKILGDSGLGPWQLNVFVCRVSAVLFYVNMYVSIVFFGLISFDRYYKIVKPLWTSFIQSVSYSKLLSVIVWMLMLLLAVPNIILTNQSVREVTQIKCIELKSELGRKWHKASNYIFVAIFWIVFLLLIVFYTAITKKIFKSHLKSSRNSTSVKKKSSRNIFSIVFVFFVCFVPYHIARIPYTKSQTEAHYSCQSKEILRYMKEFTLLLSAANVCLDPIIYFFLCQPFREILCKKLHIPLKAQNDLDISRIKRGNTTLESTDTL [P2RY14]", "values": [{"measurement": "plasma membrane surface immunostaining intensity", "setting": "GPCR class: A", "result": "5190 ± 71"}]}, {"sequence": "MITLNNQDQPVPFNSSHPDEYKIAALVFYSCIFIIGLFVNITALWVFSCTTKKRTTVTIYMMNVALVDLIFIMTLPFRMFYYAKDEWPFGEYFCQILGALTVFYPSIALWLLAFISADRYMAIVQPKYAKELKNTCKAVLACVGVWIMTLTTTTPLLLLYKDPDKDSTPATCLKISDIIYLKAVNVLNLTRLTFFFLIPLFIMIGCYLVIIHNLLHGRTSKLKPKVKEKSIRIIITLLVQVLVCFMPFHICFAFLMLGTGENSYNPWGAFTTFLMNLSTCLDVILYYIVSKQFQARVISVMLYRNYLRSMRRKSFRSGSLRSLSNINSEML [GPR18]", "values": [{"measurement": "plasma membrane surface immunostaining intensity", "setting": "GPCR class: A", "result": "360 ± 120"}]}, {"sequence": "MKAGNFSDTPEFFLLGLSGDPELQPILFMLFLSMYLATMLGNLLIILAVNSDSHLHTPMYFLLSILSLVDICFTSTTMPKMLVNIQAQAQSINYTGCLTQICFVLVFVGLENGILVMMAYDRFVAICHPLRYNVIMNPKLCGLLLLLSFIVSVLDALLHTLMVLQLTFCIDLEIPHFFCELAHILKLACSDVLINNILVYLVTSLLGVVPLSGIIFSYTRIVSSVMKIPSAGGKYKAFSICGSHLIVVSLFYGTGFGVYLSSGATHSSRKGAIASVMYTVVTPMLNPLIYSLRNKDMLKALRKLISRIPSFH [OR7G3]", "values": [{"measurement": "plasma membrane surface immunostaining intensity", "setting": "GPCR class: A (Olfactory)", "result": "111 ± 21"}]}, {"sequence": "MKALIFAAAGLLLLLPTFCQSGMENDTNNLAKPTLPIKTFRGAPPNSFEEFPFSALEGWTGATITVKIKCPEESASHLHVKNATMGYLTSSLSTKLIPAIYLLVFVVGVPANAVTLWMLFFRTRSICTTVFYTNLAIADFLFCVTLPFKIAYHLNGNNWVFGEVLCRATTVIFYGNMYCSILLLACISINRYLAIVHPFTYRGLPKHTYALVTCGLVWATVFLYMLPFFILKQEYYLVQPDITTCHDVHNTCESSSPFQLYYFISLAFFGFLIPFVLIIYCYAAIIRTLNAYDHRWLWYVKASLLILVIFTICFAPSNIILIIHHANYYYNNTDGLYFIYLIALCLGSLNSCLDPFLYFLMSKTRNHSTAYLTK [F2RL2]", "values": [{"measurement": "plasma membrane surface immunostaining intensity", "setting": "GPCR class: A", "result": "221 ± 21"}]}, {"sequence": "MKANYSAEERFLLLGFSDWPSLQPVLFALVLLCYLLTLTGNSALVLLAVRDPRLHTPMYYFLCHLALVDAGFTTSVVPPLLANLRGPALWLPRSHCTAQLCASLALGSAECVLLAVMALDRAAAVCRPLRYAGLVSPRLCRTLASASWLSGLTNSVAQTALLAERPLCAPRLLDHFICELPALLKLACGGDGDTTENQMFAARVVILLLPFAVILASYGAVARAVCCMRFSGGRRRAVGTCGSHLTAVCLFYGSAIYTYLQPAQRYNQARGKFVSLFYTVVTPALNPLIYTLRNKKVKGAARRLLRSLGRGQAGQ [OR2I1P]", "values": [{"measurement": "plasma membrane surface immunostaining intensity", "setting": "GPCR class: A (Olfactory)", "result": "132 ± 5.4"}]}, {"sequence": "MKETRGYGGDAPFCTRLNHSYTGMWAPERSAEARGNLTRPPGSGEDCGSVSVAFPITMLLTGFVGNALAMLLVSRSYRRRESKRKKSFLLCIGWLALTDLVGQLLTTPVVIVVYLSKQRWEHIDPSGRLCTFFGLTMTVFGLSSLFIASAMAVERALAIRAPHWYASHMKTRATRAVLLGVWLAVLAFALLPVLGVGQYTVQWPGTWCFISTGRGGNGTSSSHNWGNLFFASAFAFLGLLALTVTFSCNLATIKALVSRCRAKATASQSSAQWGRITTETAIQLMGIMCVLSVCWSPLLIMMLKMIFNQTSVEHCKTHTEKQKECNFFLIAVRLASLNQILDPWVYLLLRKILLRKFCQIRYHTNNYASSSTSLPCQCSSTLMWSDHLER [PTGER3]", "values": [{"measurement": "plasma membrane surface immunostaining intensity", "setting": "GPCR class: A", "result": "684 ± 110"}]}, {"sequence": "MKIANNTVVTEFILLGLTQSQDIQLLVFVLILIFYLIILPGNFLIIFTIRSDPGLTAPLYLFLGNLAFLDASYSFIVAPRMLVDFLSEKKVISYRGCITQLFFLHFLGGGEGLLLVVMAFDRYIAICRPLHCSTVMNPRACYAMMLALWLGGFVHSIIQVVLILRLPFCGPNQLDNFFCDVRQVIKLACTDMFVVELLMVFNSGLMTLLCFLGLLASYAVILCHVRRAASEGKNKAMSTCTTRVIIILLMFGPAIFIYICPFRALPADKMVSLFHTVIFPLMNPMIYTLRNQEVKTSMKRLLSRHVVCQVDFIIRN [OR4N4C]", "values": [{"measurement": "plasma membrane surface immunostaining intensity", "setting": "GPCR class: A (Olfactory)", "result": "323 ± 130"}]}, {"sequence": "MKIANNTVVTEFILLGLTQSQDIQLLVFVLILIFYLIILPGNFLIIFTIRSDPGLTAPLYLFLGNLAFLDASYSFIVAPRMLVDFLSEKKVISYRGCITQLFFLHFLGGGEGLLLVVMAFDRYIAICRPLHCSTVMNPRACYAMMLALWLGGFVHSIIQVVLILRLPFCGPNQLDNFFCDVRQVIKLACTDMFVVELLMVFNSGLMTLLCFLGLLASYAVILCHVRRAASEGKNKAMSTCTTRVIIILLMFGPAIFIYMCPFRALPADKMVSLFHTVIFPLMNPMIYTLRNQEVKTSMKRLLSRHVVCQVDFIIRN [OR4N4]", "values": [{"measurement": "plasma membrane surface immunostaining intensity", "setting": "GPCR class: A (Olfactory)", "result": "255 ± 110"}]}, {"sequence": "MKKENQSFNLDFILLGVTSQQEQNNVFFVIFLCIYPITLTGNLLIILAICADIRLHNPMYFLLANLSLVDIIFSSVTIPKVLANHLLGSKFISFGGCLMQMYFMIALAKADSYTLAAMAYDRAVAISCPLHYTTIMSPRSCILLIAGSWVIGNTSALPHTLLTASLSFCGNQEVANFYCDIMPLLKLSCSDVHFNVKMMYLGVGVFSLPLLCIIVSYVQVFSTVFQVPSTKSLFKAFCTCGSHLTVVFLYYGTTMGMYFRPLTSYSPKDAVITVMYVAVTPALNPFIYSLRNWDMKAALQKLFSKRISS [OR1A2]", "values": [{"measurement": "plasma membrane surface immunostaining intensity", "setting": "GPCR class: A (Olfactory)", "result": "207 ± 46"}]}, {"sequence": "MKLGSSRAGPGRGSAGLLPGVHELPMGIPAPWGTSPLSFHRKCSLWAPGRPFLTLVLLVSIKQVTGSLLEETTRKWAQYKQACLRDLLKEPSGIFCNGTFDQYVCWPHSSPGNVSVPCPSYLPWWSEESSGRAYRHCLAQGTWQTIENATDIWQDDSECSENHSFKQNVDRYALLSTLQLMYTVGYSFSLISLFLALTLLLFLRKLHCTRNYIHMNLFASFILRTLAVLVKDVVFYNSYSKRPDNENGWMSYLSEMSTSCRSVQVLLHYFVGANYLWLLVEGLYLHTLLEPTVLPERRLWPRYLLLGWAFPVLFVVPWGFARAHLENTGCWTTNGNKKIWWIIRGPMMLCVTVNFFIFLKILKLLISKLKAHQMCFRDYKYRLAKSTLVLIPLLGVHEILFSFITDDQVEGFAKLIRLFIQLTLSSFHGFLVALQYGFANGEVKAELRKYWVRFLLARHSGCRACVLGKDFRFLGKCPKKLSEGDGAEKLRKLQPSLNSGRLLHLAMRGLGELGAQPQQDHARWPRGSSLSECSEGDVTMANTMEEILEESEI [GLP2R]", "values": [{"measurement": "plasma membrane surface immunostaining intensity", "setting": "GPCR class: B", "result": "121 ± 21"}]}, {"sequence": "MKLWMESHLIVPETRPSPRMMSNQTLVTEFILQGFSEHPEYRVFLFSCFLFLYSGALTGNVLITLAITFNPGLHAPMYFFLLNLATMDIICTSSIMPKALASLVSEESSISYGGCMAQLYFLTWAASSELLLLTVMAYDRYAAICHPLHYSSMMSKVFCSGLATAVWLLCAVNTAIHTGLMLRLDFCGPNVIIHFFCEVPPLLLLSCSSTYVNGVMIVLADAFYGIVNFLMTIASYGFIVSSILKVKTAWGRQKAFSTCSSHLTVVCMYYTAVFYAYISPVSGYSAGKSKLAGLLYTVLSPTLNPLIYTLRNKEVKAALRKLFPFFRN [OR13A1]", "values": [{"measurement": "plasma membrane surface immunostaining intensity", "setting": "GPCR class: A (Olfactory)", "result": "120 ± 26"}]}, {"sequence": "MKMKSQATMICCLVFFLSTECSHYRSKIHLKAGDKLQSPEGKPKTGRIQEKCEGPCISSSNCSQPCAKDFHGEIGFTCNQKKWQKSAETCTSLSVEKLFKDSTGASRLSVAAPSIPLHILDFRAPETIESVAQGIRKNCPFDYACITDMVKSSETTSGNIAFIVELLKNISTDLSDNVTREKMKSYSEVANHILDTAAISNWAFIPNKNASSDLLQSVNLFARQLHIHNNSENIVNELFIQTKGFHINHNTSEKSLNFSMSMNNTTEDILGMVQIPRQELRKLWPNASQAISIAFPTLGAILREAHLQNVSLPRQVNGLVLSVVLPERLQEIILTFEKINKTRNARAQCVGWHSKKRRWDEKACQMMLDIRNEVKCRCNYTSVVMSFSILMSSKSMTDKVLDYITCIGLSVSILSLVLCLIIEATVWSRVVVTEISYMRHVCIVNIAVSLLTANVWFIIGSHFNIKAQDYNMCVAVTFFSHFFYLSLFFWMLFKALLIIYGILVIFRRMMKSRMMVIGFAIGYGCPLIIAVTTVAITEPEKGYMRPEACWLNWDNTKALLAFAIPAFVIVAVNLIVVLVVAVNTQRPSIGSSKSQDVVIIMRISKNVAILTPLLGLTWGFGIATLIEGTSLTFHIIFALLNAFQGFFILLFGTIMDHKIRDALRMRMSSLKGKSRAAENASLGPTNGSKLMNRQG [ADGRF4]", "values": [{"measurement": "plasma membrane surface immunostaining intensity", "setting": "GPCR class: B", "result": "386 ± 78"}]}, {"sequence": "MKMLTRLQVLTLALFSKGFLLSLGDHNFLRREIKIEGDLVLGGLFPINEKGTGTEECGRINEDRGIQRLEAMLFAIDEINKDDYLLPGVKLGVHILDTCSRDTYALEQSLEFVRASLTKVDEAEYMCPDGSYAIQENIPLLIAGVIGGSYSSVSIQVANLLRLFQIPQISYASTSAKLSDKSRYDYFARTVPPDFYQAKAMAEILRFFNWTYVSTVASEGDYGETGIEAFEQEARLRNICIATAEKVGRSNIRKSYDSVIRELLQKPNARVVVLFMRSDDSRELIAAASRANASFTWVASDGWGAQESIIKGSEHVAYGAITLELASQPVRQFDRYFQSLNPYNNHRNPWFRDFWEQKFQCSLQNKRNHRRVCDKHLAIDSSNYEQESKIMFVVNAVYAMAHALHKMQRTLCPNTTKLCDAMKILDGKKLYKDYLLKINFTAPFNPNKDADSIVKFDTFGDGMGRYNVFNFQNVGGKYSYLKVGHWAETLSLDVNSIHWSRNSVPTSQCSDPCAPNEMKNMQPGDVCCWICIPCEPYEYLADEFTCMDCGSGQWPTADLTGCYDLPEDYIRWEDAWAIGPVTIACLGFMCTCMVVTVFIKHNNTPLVKASGRELCYILLFGVGLSYCMTFFFIAKPSPVICALRRLGLGSSFAICYSALLTKTNCIARIFDGVKNGAQRPKFISPSSQVFICLGLILVQIVMVSVWLILEAPGTRRYTLAEKRETVILKCNVKDSSMLISLTYDVILVILCTVYAFKTRKCPENFNEAKFIGFTMYTTCIIWLAFLPIFYVTSSDYRVQTTTMCISVSLSGFVVLGCLFAPKVHIILFQPQKNVVTHRLHLNRFSVSGTGTTYSQSSASTYVPTVCNGREVLDSTTSSL [GRM3]", "values": [{"measurement": "plasma membrane surface immunostaining intensity", "setting": "GPCR class: C", "result": "6390 ± 16"}]}]}
